From the supplement of paper PMC11865577

Key:
Test in all cases: pull-down binding Z-score (relative to library population); higher = stronger binding
Details in all cases: RNA library: Library-2
TO-N3 (biotin conjugate) = tested on: TO-N3 (biotin conjugate)
In short: (§1)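 Streptavidin beads with 100 pmol of biotin-conjugated small molecule were incubated for 60 min at 25 °C with 1 μg of heat-folded Cy5- or Cy3-end-labelled RNA library in phosphate/NaCl/KCl buffer. Bound RNA was eluted in hot SDS after three washes and hybridised to a DNA barcode microarray at 55.5 °C for 20 h. Each binding score is a library-referenced Z-score, computed after beads-only subtraction and a trimmed mean of barcoded replicate probes.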

[1] = tested on: TO-3-N3 (biotin conjugate)
In short: as §1

[2] = tested on: TO-3-N3-2 (biotin conjugate)
In short: as §1

[3] = tested on: TO-N3-2 (biotin conjugate)
In short: as §1

Sequence	pull-down binding Z-score (TO-N3 (biotin conjugate))	pull-down binding Z-score [1]	pull-down binding Z-score [2]	pull-down binding Z-score [3]
GCUAUGCAAAUGGC	-0.847	-0.537	-0.527	-0.948
GCUAUGGGUAUUAUUGCUAUGUCUGCUUUUGCAAUGAUGUUUGUCAAACAUAAGCAUGCAUUUCUCUGUUUGUUUUUGUUACCUUCUCUUGCCACUGUAGC	-0.98	-0.966	-0.526	-0.573
GCUCACCGUGCCCAGUGAGC [IAV_invivo_M1_M2_7_Motif_5+IAV_invivo_M1_M2_7_Motif_5]	0.0761	0.297	-0.154	-0.587
GCUCAGGAUGGUAAUGCUGCUAUCAGC	0.203	-0.137	-0.00388	1.05
GCUCUACAAGAUGCUUAUUACAGAGC	1.52	1.83	0.467	-0.0957
GCUCUCUGAUGC [IAV_invivo_NP_5_Motif_10+IAV_invivo_NP_5_Motif_10]	-0.672	-0.607	-0.589	-0.464
GCUGAAAUUGUUGACACUGUGAGUGCUUUGGUUUAUGAUAAUAAGCUUAAAGCACAUAAAGACAAAUCAGC	-0.634	-0.842	-0.129	-0.342
GCUGACACUACUGAUGCUGUCCGUGAUCCACAGACACUUGAGAUUCUUGACAUUACACCAUGUUCUUUUGGUGGUGUCAGU [SHAPE_invivo_SARS-CoV-2_Multi_58_ComplexLevel_1]	0.456	-0.0653	-0.3	0.237
GCUGAGGCUUCUAAGAAGCCUCGGC	-1.05	-0.572	-0.475	-1.43
GCUGAGUUGCCAUUCAGC [IAV_invivo_NA_6_Motif_18+IAV_invivo_NA_6_Motif_18]	-0.304	-0.302	-0.204	-0.226
GCUGCACAAAAAGC [IAV_invivo_NP_5_Motif_13+IAV_invivo_NP_5_Motif_13]	-1.08	-0.79	-0.544	-0.23
GCUGGCCUUGAAGCCCCUUUUCUCUAUCUUUAUGCUUUAGUCUACUUCUUGCAGAGUAUAAACUUUGUAAGAAUAAUAAUGAGGCUUUGGCUUUGC	-0.969	-0.79	-0.413	-0.575
GCUGGUAAUGUUCAACUCAGGGUUAUUGGACAUUCUAUGC [SHAPE_invivo_SARS-CoV-2_Motif_203]	-0.313	-0.362	-0.104	-0.0925
GCUGGUCUGACUCACAUGAUGAUCUGGC [IAV_invivo_NP_5_Motif_8+IAV_invivo_NP_5_Motif_8]	-0.454	-0.624	-0.265	0.653
GCUGGUGCACUUGCCAGU [IAV_invivo_M1_M2_7_Motif_8+IAV_invivo_M1_M2_7_Motif_8]	-0.408	-0.522	-0.545	-0.0123
GCUGUAGUGUUACUAAUCCUUAUGACAGC	-0.197	-0.113	-0.242	-0.349
GCUGUGAGUUGGAUACUUACCUG [U1snRNP5ss-13]	0.947	0.0032	0.194	1.38
GCUGUUGGUACCAAUUUACCUUUACAGC [SHAPE_invitro_SARS-CoV-2_Motif_335]	0.215	0.416	-0.037	-0.561

Sequence	pull-down binding Z-score (TO-N3 (biotin conjugate))	pull-down binding Z-score [1]	pull-down binding Z-score [2]	pull-down binding Z-score [3]
GCUGUUUAAUAGGGGCUGAACAUGUCAACAACUCAUAUGAGUGUGACAUACCCAUUGGUGCAGGUAUAUGCGCUAGUUAUCAGACUCAGACUAAUUCUCCUCGGC	0.298	-0.351	0.183	-0.00417
GCUUCAAGAGAGC	-0.0808	-0.0727	-0.171	-0.212
GCUUCCACAAGUGCUUUUGUGGAAACUGUGAAAGGUUUGGAUUAUAAAGCAUUCAAACAAAUUGUUGAAUCCUGUGGUAAUUUUAAAGUUACAAAAGGAAAAGC	-0.508	-0.475	-0.339	-0.348
GCUUCCACUGAGAAGU [DMSMaPseq_invitro_SARS-CoV-2_Motif_384]	-1.1	-0.836	-0.576	-1.03
GCUUCUAGAAAGUGAACUCGUAAUCGGAGCUGUGAUCCUUCGUGGACAUCUUCGUAUUGCUGGACACCAUCUAGGACGC	0.335	-0.191	0.191	1.23
GCUUGAAGUGGAGC [IAV_invivo_NS1_NEP_8_Motif_14+IAV_invivo_NS1_NEP_8_Motif_14]	-0.23	-0.454	-0.23	0.386
GCUUGCAUACGUAGACCAUUCUUAUGUUGUAAAUGCUGUUACGACCAUGUCAUAUCAACAUCACAUAAAUUAGUCUUGUCUGUUAAUCCGUAUGUUUGCAAUGC [DMSMaPseq_invitro_SARS-CoV-2_Motif_294]	-0.546	-0.654	-0.304	-0.437
GCUUGGAGAAAAGC [SHAPE_invitro_SARS-CoV-2_Motif_326]	-0.705	-0.536	-0.278	-0.491
GCUUGUCACACCGUUUCUAUAGAUUAGCUAAUGAGUGUGCUCAAGU	-0.0415	-0.601	-0.356	0.588
GCUUUAGUCUACUUCUUGCAGAGUAUAAACUUUGUAAGAAUAAUAAUGAGGC [SHAPE_invitro_SARS-CoV-2_Motif_467]	0.0166	0.0529	-0.169	-0.561
GCUUUCUUUGGC [IAV_invivo_NS1_NEP_8_Motif_2+IAV_invivo_NS1_NEP_8_Motif_2]	-0.43	-0.0308	-0.505	-1.09
GCUUUGAUAUGGAACGUUAAAGAUUUCAUGUCAUUGU	-0.204	-0.179	-0.217	-0.395
GCUUUGUCCAAAAUGCCCUUAAUGGGAACGGGGAUCCAAAUAACAUGGACAAAGC [IAV_invivo_M1_M2_7_Motif_6+IAV_invivo_M1_M2_7_Motif_6]	-0.155	0.0624	0.353	-0.236
GGAAAUGAUUCC [IAV_invivo_PB2_1_Motif_4+IAV_invivo_PB2_1_Motif_4]	-1.05	-0.59	-0.712	-1.3
GGAACCUAGUAAUAGGUUUCC [DMSMaPseq_invitro_SARS-CoV-2_Motif_479]	0.439	0.7	-0.0496	-0.779
GGAAGACCUUAAAUUCCCUCGAGGACAAGGCGUUCC	-0.658	-0.756	-0.381	-0.19
GGAAGAGACAGGUACGUUAAUAGUUAAUAGCGUACUUCUUUUUC	-0.585	-0.226	-0.193	-0.494
